Where a chain is given by its changes, count along the chain named.
B1: EGFR-CD3 DuetMab with the parental anti-CD3 arm (bispecific antibody, part only; not given: anti-EGFR arm, constant regions, V domains shown, not shown: another chain or arm of the molecule; a dimerising Fc or GST; small tags and cut ends)
VH: QVQLVESGGGVVQPGRSLRLSCAASGFTFTKAWMHWVRQAPGKQLEWVAQIKDKSNSYATYYADSVKGRFTISRDDSKNTLYLQMNSLRAEDTAVYYCRGVYYALSPFDYWGQGTLVTVSS
VL: DIVMTQTPLSLSVTPGQPASISCKSSQSLVHNNANTYLSWYLQKPGQSPQSLIYKVSNRFSGVPDRFSGSGSGTDFTLKISRVEAEDVGVYYCGQGTQYPFTFGSGTKVEIK
B2: EGFR-CD3 DuetMab with anti-CD3 variant AZ Vκ 29 + AZ VH R79 (bispecific antibody, part only; not given: anti-EGFR arm, constant regions, V domains shown, not shown: another chain or arm of the molecule; a dimerising Fc or GST; small tags and cut ends)
VH: EVQLVESGGALVKPGGSLRLSCAASGFTFTRAWMHWVRQAPGKQLEWVAQIKDRSQTYATYYAESVKGRFTISRDDSKNTLYLQMNSLKTEDTAVYYCRGVYYAVTPFDYWGQGTLVTVSS
VL: B1 VL with T7S, S12P, Q17E, K24R, N33T, A34G, F60A, Y99F
B3: EGFR-CD3 DuetMab with anti-CD3 variant AZ Vκ 26 + AZ VH E75 (bispecific antibody, part only; not given: anti-EGFR arm, constant regions, V domains shown, not shown: another chain or arm of the molecule; a dimerising Fc or GST; small tags and cut ends)
VH: B2 VH with R31E, V105N, T106A
VL: B1 VL with T7S, S12P, Q17E, K24R, N33T, A34G, F60A, Y99A, T102S
B4: EGFR-CD3 DuetMab with anti-CD3 variant AZ Vκ 29 + AZ VH R75 (bispecific antibody, part only; not given: anti-EGFR arm, constant regions, V domains shown, not shown: another chain or arm of the molecule; a dimerising Fc or GST; small tags and cut ends)
VH: B2 VH with V105N, T106A
VL: B1 VL with T7S, S12P, Q17E, K24R, N33T, A34G, F60A, Y99F
B5: EGFR-CD3 DuetMab with anti-CD3 variant AZ Vκ 26 + AZ VH SN82 (bispecific antibody, part only; not given: anti-EGFR arm, constant regions, V domains shown, not shown: another chain or arm of the molecule; a dimerising Fc or GST; small tags and cut ends)
VH: B2 VH with T30S, R31N, V105N
VL: B1 VL with T7S, S12P, Q17E, K24R, N33T, A34G, F60A, Y99A, T102S
B6: EGFR-CD3 DuetMab with anti-CD3 variant AZ Vκ 26 + AZ VH E82 (bispecific antibody, part only; not given: anti-EGFR arm, constant regions, V domains shown, not shown: another chain or arm of the molecule; a dimerising Fc or GST; small tags and cut ends)
VH: B2 VH with R31E, V105N
VL: B1 VL with T7S, S12P, Q17E, K24R, N33T, A34G, F60A, Y99A, T102S
B7: EGFR-CD3 DuetMab with anti-CD3 variant AZ Vκ 26 + AZ VH E79 (bispecific antibody, part only; not given: anti-EGFR arm, constant regions, V domains shown, not shown: another chain or arm of the molecule; a dimerising Fc or GST; small tags and cut ends)
VH: B2 VH with R31E
VL: B1 VL with T7S, S12P, Q17E, K24R, N33T, A34G, F60A, Y99A, T102S
B8: EGFR-CD3 DuetMab with anti-CD3 variant AZ Vκ 29 + AZ VH R82 (bispecific antibody, part only; not given: anti-EGFR arm, constant regions, V domains shown, not shown: another chain or arm of the molecule; a dimerising Fc or GST; small tags and cut ends)
VH: B2 VH with V105N
VL: B1 VL with T7S, S12P, Q17E, K24R, N33T, A34G, F60A, Y99F
B9: AZ Vκ+AZ VH IgG1-TM (antibody, V domains shown)
VH: B1 VH
VL: B1 VL
notes: also called parental AZ Vκ+AZ VH IgG1-TM; parental anti-CD3 antibody
B10: AZ Vκ 7 + AZ VH 13 (antibody, IgG1, V domains shown)
VH: B2 VH with R31K, W33Y, T57S, V105L, T106S
VL: B1 VL with T7S, S12P, Q17E, K24R, N33T, A34G, F60A
notes: member of the group m34
B11: AZ Vκ 7 + AZ VH 21 (antibody, IgG1, V domains shown)
VH: B2 VH with T30S, R31N, W33Y, T57S, V105L, T106S
VL: B1 VL with T7S, S12P, Q17E, K24R, N33T, A34G, F60A
notes: member of the group m34

molecular target: Biotinylated recombinant human CD3εδ (Acro Biosystems, CDD-H82W6) (human) (UniProt P07766); assay: Octet BLI, biotinylated CD3εδ on streptavidin sensors, 1:1 model
Sequence (P07766 23-126, stated change not applied, chain 1 of 2): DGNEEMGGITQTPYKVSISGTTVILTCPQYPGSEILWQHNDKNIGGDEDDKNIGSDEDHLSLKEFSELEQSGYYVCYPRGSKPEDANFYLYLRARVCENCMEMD
Sequence (P04234 22-105, stated change not applied, chain 2 of 2, further chain): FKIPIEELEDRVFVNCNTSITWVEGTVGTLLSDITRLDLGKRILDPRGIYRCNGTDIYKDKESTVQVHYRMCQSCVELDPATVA

Kd [nM] | koff [s⁻¹] | kon [M⁻¹ s⁻¹] | Binder
24.3 | 0.00105 | 43300 | B1
878 | 0.0487 | 55500 | B2
2280 | 0.0172 | 7540 | B3
224 | 0.0119 | 53300 | B4
1710 | 0.0212 | 12400 | B5
3920 | 0.0287 | 7330 | B6
4660 | 0.0511 | 11000 | B7
595 | 0.0231 | 38800 | B8

molecular target: T1, Cynomolgus monkey CD3 on HSC-F cells (cynomolgus monkey, UniProt Q95LI5 22-198; Q95LI8 22-171; Q95LI7 23-181); assay: flow cytometry on HSC-F cells (cyCD3+), detection with Alexa Fluor 647 goat F(ab')2 anti-human IgG Fcγ
T1 construct: whole, on cells; CD3 complex; also called cyCD3+; cynomolgus CD3+ cells
T1 sequence (Q95LI5 22-198, chain 1 of 3): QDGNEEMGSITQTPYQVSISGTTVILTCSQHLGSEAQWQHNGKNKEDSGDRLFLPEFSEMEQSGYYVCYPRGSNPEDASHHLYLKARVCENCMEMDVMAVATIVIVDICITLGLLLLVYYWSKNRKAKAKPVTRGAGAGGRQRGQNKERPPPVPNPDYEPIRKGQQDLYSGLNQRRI
T1 sequence (Q95LI8 22-171, chain 2 of 3): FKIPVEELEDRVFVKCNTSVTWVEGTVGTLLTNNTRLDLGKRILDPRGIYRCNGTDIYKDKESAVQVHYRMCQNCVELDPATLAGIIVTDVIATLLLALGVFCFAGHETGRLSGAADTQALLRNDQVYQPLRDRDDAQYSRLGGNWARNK
T1 sequence (Q95LI7 23-181, chain 3 of 3): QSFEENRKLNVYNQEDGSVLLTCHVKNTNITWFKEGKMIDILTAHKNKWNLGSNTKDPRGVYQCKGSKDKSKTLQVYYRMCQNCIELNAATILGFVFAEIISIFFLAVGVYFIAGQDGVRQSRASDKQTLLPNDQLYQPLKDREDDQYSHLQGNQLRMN
Experimental: (§1) Flow Cytometry was used to determine specific cell surface antigen binding. The human leukemia T cell lines HPB-ALL, Jurkat, Jurkat TCR KO, and cynomolgus T cell line HSC-F were used to assess human CD3 and cynomolgus CD3 binding, respectively. Briefly, 1×10⁵ cells were suspended in FACS buffer (1×PBS, pH 7.2 supplemented with 2% heat-inactivated FBS, 0.1% sodium azide and 2 mM EDTA) and placed into each well of a round-bottom 96-well plate. Antibodies were diluted to various concentrations using FACS buffer and added to the cells. Antibodies and cells were washed twice with FACS buffer after incubation at 4° C. for 30 min. Cell surface antigen binding of antibodies was detected with Alexa Fluor 647-conjugated goat F(ab′)₂ fragment specifically against human IgG Fcγ fragment. Data was collected using a BD FACSymphony A3 Cell Analyzer (BD Biosciences). Data was analyzed with FlowJo v10.6.1 and plotted using GraphPad Prism v9.0.0.

EC50 (read off the curve) [nM] | Binder
~40 | B9

molecular target: T1, Cynomolgus monkey CD3 on HSC-F cells; assay: flow cytometry on HSC-F cells (cyCD3++), detection with Alexa Fluor 647 goat F(ab')2 anti-human IgG Fcγ
Experimental: as §1

EC50 (read off the curve) [nM] | binding result | Binder
~40 | – | B9
– | binds | B10
– | binds | B11

molecular target: T2, Human CD3 on HPB-ALL and Jurkat cells (human, UniProt P07766 23-207; P04234 22-171; P09693 23-182); assay: flow cytometry on HPB-ALL cells (hCD3++), EGFR-CD3 DuetMab, detection with Alexa Fluor 647 goat F(ab')2 anti-human IgG Fcγ
T2 construct: whole, on cells; also called hCD3+; human CD3+ cells
T2 sequence (P07766 23-207, chain 1 of 3): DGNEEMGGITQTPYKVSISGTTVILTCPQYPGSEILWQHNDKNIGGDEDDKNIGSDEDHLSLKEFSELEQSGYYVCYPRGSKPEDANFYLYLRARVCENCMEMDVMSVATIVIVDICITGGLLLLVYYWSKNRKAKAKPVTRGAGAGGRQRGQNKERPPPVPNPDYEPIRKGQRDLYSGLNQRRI
T2 sequence (P04234 22-171, chain 2 of 3): as the sequence (Q95LI8 22-171, chain 2 of 3) above, with V5I, K15N, V20I, T32S, N33D, N34I, A64T, N74S, L83V, R141H counted along it
T2 sequence (P09693 23-182, chain 3 of 3): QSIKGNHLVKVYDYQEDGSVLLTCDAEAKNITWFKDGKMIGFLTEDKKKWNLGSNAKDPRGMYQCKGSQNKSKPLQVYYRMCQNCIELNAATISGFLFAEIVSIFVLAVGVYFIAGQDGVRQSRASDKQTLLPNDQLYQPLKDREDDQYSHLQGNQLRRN

EC50 (read off the curve) [nM] | Binder
50 | B1

molecular target: T2, Human CD3 on HPB-ALL and Jurkat cells; assay: flow cytometry on HPB-ALL cells (hCD3+), detection with Alexa Fluor 647 goat F(ab')2 anti-human IgG Fcγ
Experimental: as §1

binding result | Binder
binds | B10
binds | B11
